US9820934B2, “Acid containing lipid formulations” (CAMURUS AB, priority 2007, dated 2017)

Assay: Dissolution of GLP-1 in lipid formulation containing P80 and MeSulf (visual: homogenous, transparent)
Format: physicochemical
Conditions: SPC/GDO/P80/EtOH/PG/MeSulf=41.0/41.0/5.0/3.0/10.0/0.5 wt %; nominal loads 3, 4, 5 and 6 wt % GLP-1(0); room temperature, 1-3 days
Source text: The lipid composition was the following: SPC/GDO/P80/EtOH/PG/MeSulf=41.0/41.0/5.0/3.0/10.0/0.5 wt %.

## GLP-1(7-36)amide, acetate salt [GLP-1(Ac)]
  Dissolution of GLP-1 in the lipid formulation: complete dissolution
